According to article PMC2885016:

Target: human P-TEFb (Cdk9 (1-345)•Cyclin T1 (1-266)) (human) (UniProt P50750)
Assay: SDS-PAGE of dissolved crystals

Chain of UniProt P50750 (P50750 1-345, chain 1 of 2): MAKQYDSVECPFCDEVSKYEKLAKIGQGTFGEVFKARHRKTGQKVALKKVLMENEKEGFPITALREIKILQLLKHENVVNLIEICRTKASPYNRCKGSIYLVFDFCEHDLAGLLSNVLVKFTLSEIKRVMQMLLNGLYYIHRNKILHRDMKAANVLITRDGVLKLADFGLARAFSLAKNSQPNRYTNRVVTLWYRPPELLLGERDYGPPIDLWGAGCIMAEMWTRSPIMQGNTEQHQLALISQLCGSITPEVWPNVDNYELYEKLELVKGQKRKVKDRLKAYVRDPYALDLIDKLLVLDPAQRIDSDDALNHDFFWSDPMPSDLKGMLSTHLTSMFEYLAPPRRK
Chain of UniProt P50750 (O60563 1-266, chain 2 of 2, further chain): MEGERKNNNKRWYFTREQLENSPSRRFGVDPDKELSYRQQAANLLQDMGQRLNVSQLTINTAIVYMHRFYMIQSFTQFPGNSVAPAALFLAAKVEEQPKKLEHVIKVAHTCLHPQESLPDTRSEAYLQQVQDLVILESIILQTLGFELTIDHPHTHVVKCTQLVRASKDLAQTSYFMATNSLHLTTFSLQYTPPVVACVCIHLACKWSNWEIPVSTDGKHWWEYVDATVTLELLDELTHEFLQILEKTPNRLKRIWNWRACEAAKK

Substance: HIV-1 Tat (1-86) (from UniProt P04608 1-86) (natural protein)
- stoichiometry N: 1
